“And” between values parts separate entries of the source, which are not always exact repeats. Equal values may be shown once. Read-outs that look alike come from different tables or passages of the source. Square brackets hold non-standard residues; d marks the D form. Ends that are not written are not given here. Peptide text beside a SMILES is read from it. * marks the point of attachment. Benzoyl(4-octyl) = CCCCCCCCc1ccc(C(=O)*)cc1; pT = C[C@@H](OP(=O)(O)O)[C@H](N)C(=O)O; X2 = O=C(c1ccc(OCc2ccc(F)cc2)cc1)*; Benzoyl(4-OH) = O=C(c1ccc(O)cc1)*
Tests used:
[1] = molecular target: polo-box domain (PBD) of polo-like kinase 1 (PLK1) (UniProt P53350); experiment: from FP IC50s; PLK1 PBD against PLK3 PBD
polo-box domain (PBD) of polo-like kinase 1 (PLK1) (UniProt P53350), sequence (P53350 367-603 limits assumed): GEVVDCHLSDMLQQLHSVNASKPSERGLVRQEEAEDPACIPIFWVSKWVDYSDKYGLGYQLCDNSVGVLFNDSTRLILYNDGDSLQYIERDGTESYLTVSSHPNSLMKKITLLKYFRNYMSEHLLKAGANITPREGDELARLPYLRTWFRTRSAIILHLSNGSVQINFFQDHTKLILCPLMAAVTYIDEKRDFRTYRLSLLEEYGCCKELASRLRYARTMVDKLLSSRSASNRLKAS

[2] = molecular target: polo-box domain (PBD) of polo-like kinase 1 (PLK1) (UniProt P53350); experiment: fluorescence polarization competition on PLK1 PBD
[3] = molecular target: polo-box domain (PBD) of polo-like kinase 1 (PLK1) (UniProt P53350); experiment: fluorescence polarization competition, displacement of tracer peptide from PLK1 PBD
[4] = molecular target: PLK1 PBD (Homo sapiens, UniProt P53350); experiment: Fluorescence polarization competitive binding assay, PLK1 PBD; details: for Selectivity Index: (IC50 PLK3 PBD/IC50 PLK1 PBD)×5, PLK1 over PLK3
PLK1 PBD, sequence (P53350 367-603 limits assumed): as above
Protocol: (§1) According to the assay, binding of a fluorescent tracer peptide to a protein increased polarization of the emitted fluorescence. […] The ability of test molecules to bind to the PBD was quantitated by a reduction in mP values that occurred as the tracer was displaced from the PBD, and plotted to calculate as an IC50 value.
(§2) The affinities of the peptides for PLK1 and PLK3 were measured by plotting the loss of polarization against increasing concentration of competitor peptide through use of an optimized assay and selectivity determination.

[5] = molecular target: T1, PLK3 PBD (Homo sapiens, UniProt Q9H4B4); experiment: Fluorescence polarization competitive binding assay, PLK3 PBD; details: for PLK3 PBD binding, in words: FP assay
T1 construct: A similar assay format was developed for the PLK3 PBD
T1 sequence (Q9H4B4 335-646 limits assumed): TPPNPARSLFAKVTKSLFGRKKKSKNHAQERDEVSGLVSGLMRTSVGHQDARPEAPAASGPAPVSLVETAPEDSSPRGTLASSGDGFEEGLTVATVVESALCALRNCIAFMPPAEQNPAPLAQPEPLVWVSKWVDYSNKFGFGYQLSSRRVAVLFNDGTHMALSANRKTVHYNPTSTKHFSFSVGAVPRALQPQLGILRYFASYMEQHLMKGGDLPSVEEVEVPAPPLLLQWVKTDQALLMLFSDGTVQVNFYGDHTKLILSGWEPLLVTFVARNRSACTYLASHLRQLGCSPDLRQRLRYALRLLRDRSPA
Protocol: The binding of fluorescein-labelled tracer peptides used for both assays was determined to see if there was a difference in affinity for their respective PBD. A titration curve for each tracer/PLK PBD complex was generated to determine Kd values for each and therefore compare the relative binding affinities.
as §2

[6] = molecular target: polo-box domain (PBD) of polo-like kinase 1 (PLK1) (UniProt P53350); experiment: from FP IC50s, (IC50 PLK3 PBD/IC50 PLK1 PBD)x5; PLK1 PBD against PLK3 PBD
[7] = molecular target: T2, polo-box domain (PBD) of polo-like kinase 1 (PLK1) (UniProt P53350 367-603, limits assumed); experiment: fluorescence polarization competition, displacement of tracer peptide from PLK1 PBD
T2 construct: domain: polo-box domain (PBD); the background speaks of the four known human PLKs and the residue numbers (L491) fit human PLK1; also called PLK1 PBD; PBD of PLK1
T2 sequence (P53350 367-603 limits assumed): as the sequence (P53350 367-603 limits assumed) above
Description: as §1, with “IC₅₀” for “IC50”

[8] = molecular target: polo-box domain (PBD) of polo-like kinase 3 (PLK3) (UniProt Q9H4B4); experiment: fluorescence polarization competition, displacement of tracer peptide from PLK3 PBD
[9] = molecular target: polo-like kinase 1 (PLK1), wild type, in cells (UniProt P53350 2-603, limits assumed); experiment: cell-based or functional assay
polo-like kinase 1 (PLK1), wild type, in cells, sequence (P53350 2-603 limits assumed): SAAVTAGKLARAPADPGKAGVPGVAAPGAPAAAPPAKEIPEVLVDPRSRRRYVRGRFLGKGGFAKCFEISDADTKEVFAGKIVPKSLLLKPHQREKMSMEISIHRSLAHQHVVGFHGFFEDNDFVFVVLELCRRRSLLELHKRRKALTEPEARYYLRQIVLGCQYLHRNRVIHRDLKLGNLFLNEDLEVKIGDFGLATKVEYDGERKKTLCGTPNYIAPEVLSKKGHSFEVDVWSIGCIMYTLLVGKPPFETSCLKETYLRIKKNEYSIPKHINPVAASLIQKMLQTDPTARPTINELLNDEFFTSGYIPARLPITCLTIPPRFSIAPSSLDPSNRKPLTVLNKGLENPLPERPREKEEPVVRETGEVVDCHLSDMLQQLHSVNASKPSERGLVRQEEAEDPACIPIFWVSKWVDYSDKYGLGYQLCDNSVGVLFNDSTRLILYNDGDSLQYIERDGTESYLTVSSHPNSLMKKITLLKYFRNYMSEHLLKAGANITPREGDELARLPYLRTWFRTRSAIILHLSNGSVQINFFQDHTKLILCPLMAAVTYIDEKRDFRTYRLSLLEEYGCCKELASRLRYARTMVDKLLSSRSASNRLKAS

[10] = PLK3 PBD FP IC50, competition with fluorescent tracer peptide
[11] = competition with fluorescent tracer peptide, read-out: PLK3 PBD FP IC50
[12] = competition with fluorescent tracer peptide, read-out: PLK1 PBD FP IC50

In the case of “4-butyl benzamide FLIP, 4-butyl S[pT]PNGL (SEQ ID NO: 11) (peptide)”, the Selectivity Index [1] is reported as greater than 1200, the fold potency increase against Compound #9 [2] is reported as 2 fold and the IC50 [3] is reported as 2.5 µM.

In the case of CC(C)C[C@H](NC(=O)CNC(=O)[C@H](CC(N)=O)NC(=O)[C@@H]1CCCN1C(=O)[C@@H](NC(=O)[C@H](CO)NC(=O)c1ccc(O)cc1)[C@@H](C)OP(=O)(O)O)C(=O)O [Compound 1] ({Benzoyl(4-OH)}-S[pT]PNGL-OH), the “PLK1 PBD binding, in words” value ([4]; FP assay) is reported as “completely inactive”.

For CC(C)C[C@H](NC(=O)CNC(=O)[C@H](CC(N)=O)NC(=O)[C@@H]1CCCN1C(=O)[C@@H](NC(=O)[C@H](CO)NC(=O)c1ccc(OCc2ccc(F)cc2)cc1)[C@@H](C)OP(=O)(O)O)C(=O)O [Compound 5] (X2-S[pT]PNGL-OH; C-terminus assumed), the IC50 [4] was 5 µM and the “fold reduction of PLK1 PBD binding relative to parent compound” value [4] was roughly 24 fold.

CCCCCCCCc1ccc(C(=O)N[C@@H](CO)C(=O)N[C@H](C(=O)N2CCC[C@H]2C(=O)N[C@@H](CC(N)=O)C(=O)NCC(=O)N[C@@H](CC(C)C)C(=O)O)[C@@H](C)OP(=O)(O)O)cc1 [Compound 13] ({Benzoyl(4-octyl)}-S[pT]PNGL-OH; C-terminus assumed) gave an IC50 [5, 10] of 149 ± 38.2 µM.

CCCCCCCCc1ccc(C(=O)N[C@@H](CO)C(=O)N[C@H](C(=O)N[C@@H](C)C(=O)O)[C@@H](C)OP(=O)(O)O)cc1 [Compound 14] was tested, and the IC50 [5, 11] was 202 ± 51.3 µM, the “fold reduction of PLK1 PBD binding relative to parent compound” value [4] was roughly 40 fold and the “Selectivity Index” value [4] was 66.

In the case of CC(C)C[C@H](NC(=O)CNC(=O)[C@H](CC(N)=O)NC(=O)[C@@H]1CCCN1C(=O)[C@@H](NC(=O)[C@H](CO)NC(=O)[C@H](CS)NC(=O)[C@H](CC(C)C)NC(=O)[C@@H](N)CC(C)C)[C@@H](C)OP(=O)(O)O)C(=O)O [SEQ ID NO: 1, LLCS[pT]PNGL, reference compound] (H-LLCS[pT]PNGL-OH; N-terminus and C-terminus assumed), the “PLK3 PBD binding, in words” value [5] is reported as “no PLK3 PBD binding apparent at the maximum concentration tested”.

For CC(C)C[C@H](NC(=O)CNC(=O)[C@H](CC(N)=O)NC(=O)[C@@H]1CCCN1C(=O)[C@@H](NC(=O)[C@H](CO)NC(=O)[C@H](CS)NC(=O)[C@H](CC(C)C)NC(=O)[C@@H](N)CC(C)C)[C@@H](C)O)C(=O)O [SEQ ID NO: 2, reference compound] (H-LLCSTPNGL-OH), the IC50 [4] was greater than 600 µM.

For CC(=O)N1CCC[C@H]1C(=O)N[C@@H](CC(C)C)C(=O)N[C@@H](Cc1c[nH]cn1)C(=O)N[C@@H](CO)C(=O)N[C@H](C(=O)N1CCC[C@H]1C(=O)N[C@@H](CC(N)=O)C(=O)NCC(=O)N[C@@H](CC(C)C)C(=O)O)[C@@H](C)OP(=O)(O)O [SEQ ID NO: 3, Ac-PLHS[pT]PNGL] (Ac-PLHS[pT]PNGL-OH; C-terminus assumed), the IC50 [5, 11] was 164 µM, the “Selectivity Index” value [4] was 13,633 and the IC50 [4, 12] was 0.06 µM.

With CC[C@H](C)[C@H](NC(=O)[C@H](C)NC(=O)[C@@H](NC(=O)[C@H](CO)NC(=O)[C@H](Cc1c[nH]cn1)NC(=O)[C@H](CC(C)C)NC(=O)[C@@H]1CCCN1C(C)=O)[C@@H](C)OP(=O)(O)O)C(=O)O [SEQ ID NO: 4, Ac-PLHS[pT]Al] (Ac-PLHS[pT]AI-OH; C-terminus assumed) the IC50 [5, 11] was 270 µM, the “Selectivity Index” value [4] was 21,133 and the IC50 [4, 12] was 0.064 µM.

For CC[C@H](C)[C@H](NC(=O)[C@H](C)NC(=O)[C@@H](NC(=O)[C@H](CO)NC(=O)[C@H](Cc1c[nH]cn1)NC(=O)[C@H](CC(C)C)NC(C)=O)[C@@H](C)OP(=O)(O)O)C(=O)O [SEQ ID NO: 5, Ac-LHS[pT]Al] (Ac-LHS[pT]AI-OH; C-terminus assumed), the “PLK3 PBD binding, in words” value [5] was “lost all detectable affinity”, the IC50 [5, 10] was greater than 600 µM and the IC50 [4] was 1.57 µM. For the same molecule, the “Selectivity Index” value [4] was greater than 1900.

In the case of CC(C)C[C@H](NC(=O)[C@@H]1CCCN1C(=O)CN)C(=O)N[C@@H](C)C(=O)N[C@H](C(=O)N[C@@H](CO)C(=O)N[C@H](C(=O)N1CCC[C@H]1C(=O)N[C@@H](CCCCN)C(=O)N[C@@H](CC(N)=O)C(=O)NCC(=O)O)[C@@H](C)OP(=O)(O)O)[C@@H](C)O [SEQ ID NO: 7, GPLATS[pT]PKNG, reference compound] (H-GPLATS[pT]PKNG-OH; N-terminus and C-terminus assumed), the IC50 [5, 10] is reported as 2.2 µM, the IC50 [4] is reported as 0.0057 µM and the “Selectivity Index” value [4] is reported as ~2000 and 1928.

With CC(C)C[C@H](NC(=O)CNC(=O)[C@H](CC(N)=O)NC(=O)[C@@H]1CCCN1C(=O)[C@@H](NC(=O)[C@H](CO)NC(=O)[C@@H](NC(=O)[C@H](C)NC(=O)[C@H](CC(C)C)NC(=O)[C@@H]1CCCN1C(=O)CN)[C@@H](C)O)[C@@H](C)OP(=O)(O)O)C(=O)O [SEQ ID NO: 8, GPLATS[pT]PNGL] (H-GPLATS[pT]PNGL-OH; N-terminus and C-terminus assumed) the “fold reduction of PLK3 PBD binding relative to parent compound” value [5] was 3 fold, the IC50 [5, 10] was 6.3 µM and the IC50 [4] was 0.011 µM. For the same molecule, the “fold reduction of PLK1 PBD binding relative to parent compound” value [4] was 2 fold and the “Selectivity Index” value [4] was 2864.

With CC(=O)N1CCC[C@H]1C(=O)N[C@@H](CC(C)C)C(=O)N[C@@H](Cc1c[nH]cn1)C(=O)N[C@@H](CO)C(=O)N[C@H](C(=O)N1CCC[C@H]1C(=O)N[C@@H](CCCCN)C(=O)N[C@@H](CC(N)=O)C(=O)NCC(=O)O)[C@@H](C)OP(=O)(O)O [SEQ ID NO: 9, Ac-PLHS[pT]PKNG] (Ac-PLHS[pT]PKNG-OH; C-terminus assumed) the IC50 [5, 11] was 134 µM, the “Selectivity Index” value [4] was 20,906 and the IC50 [4, 12] was 0.032 µM.

Ac-PLHS[pT]A (SEQ ID NO: 6) gave a fold reduction in binding against SEQ ID NO: 4 [2] of 7 fold, an IC50 [3] of 0.46 µM and a Selectivity Index [6] greater than 6500.

Molecule Ac-PLHS[pT]AI (SEQ ID NO: 4) has a Selectivity Index [6] of 21100.

With Ac-PLHS[pT]PKNG (SEQ ID NO: 9) the fold weakened affinity against SEQ ID NO: 8 [2] was 2 fold and the Selectivity Index [6] was 20900.

Work on Ac-PLHS[pT]PNGL (SEQ ID NO: 3) yielded a fold increase against SEQ ID NO: 1 [2] of 3 fold and a Selectivity Index [6] of 13600.

For “Compound No. 12, 4-hexyl S[pT]PNGL (SEQ ID NO: 11) (peptide)”, the Selectivity Index [1] was greater than 2830 and the IC50 [3] was 1 µM.

With “Compound No. 13, 4-octyl S[pT]PNGL (SEQ ID NO: 11) (peptide)” the Selectivity Index [1] was 2070 and the IC50 [3] was 0.36 µM.

Work on “Compound No. 14, 4-octyl S[pT]A (SEQ ID NO: 12) (peptide)” yielded a Selectivity Index [1] of 66, a fold weaker affinity against Compound No. 15 [2] of 40 fold and an IC50 [3] of 15.2 µM.

GPLATS[pT]PKNG (SEQ ID NO: 7) gave a Selectivity Index [6] of 1930.

Molecule {4‑(methylamino)benzoyl}-S[pT]PNGL (also: further groups not given here, see m14; also called Compound No. 8) [Compound #8, methylamino FLIP (R1 = NCH3)] has an IC50 [7] of 11.2 µM.

{Benzoyl(4-octyl)}-S[pT]AI [Compound No. 15, 4-octylbenzamide N-capped S[pT]AI (SEQ ID NO: 13)] was tested, and the Selectivity Index [1] was 1860, the IC50 [8] was 153 µM and the “MTT IC50 [µM] A549” value [9] was 79.5 µM. The “MTT IC50 [µM] HeLa” value [9] was 128 µM, the “MTT IC50 [µM] PC-3” value [9] was 55.7 µM and the IC50 [3] was 0.41 µM.

Molecule {4‑methoxybenzoyl}-S[pT]PNGL (also: further groups not given here, see m14; also called Compound No. 2) [Compound #2, methoxy derivative FLIP (R1 = OCH3)] has an IC50 [7] of 21.9 µM.

Molecule {4‑phenethoxybenzoyl}-S[pT]PNGL (also: further groups not given here, see m14; also called Compound No. 6) [Compound #6, 4-phenethoxy FLIP (R1 = OCH2CH2C6H5)] has an IC50 [7] of 4.5 µM.

Work on {4‑(methylthio)benzoyl}-S[pT]PNGL (also: further groups not given here, see m14; also called Compound No. 7) [Compound #7, thiomethyl FLIP (R1 = SCH3)] yielded an IC50 [7] of 3 µM.

Molecule Ac-LHS[pT]AI [Ac-LHS[pT]AI (SEQ ID NO: 5)] has a fold loss of binding against SEQ ID NO: 4 [2] of 24 fold and a Selectivity Index [6] greater than 1900.

In the case of {4‑ethoxybenzoyl}-S[pT]PNGL (also: further groups not given here, see m14; also called Compound No. 3) [Compound #3 FLIP (R1 = OCH2CH3)], the IC50 [7] is reported as 15.9 µM.

— US20190269784A1, “Selective Inhibitors of the Polo-Like Kinase 1 Polo-Box Domain” (UNIVERSITY OF SOUTH CAROLINA, priority 2018, published 2019)
